This is an account of results in paper PMC11162321.

In assay [1] the target is F-actin (rabbit skeletal muscle α-actin, filamentous) (rabbit (Oryctolagus cuniculus)) (UniProt P68135). As to the kind of experiment: single-molecule TIRF microscopy.
Assay [2] shares this target. As to the kind of experiment: other fluorescence titration.
The target is the same in assay [3]. As to the kind of experiment: cryo-EM structure.
The target is the same in assay [4]. As to the kind of experiment: fluorescence polarisation.

Chain of SipAC (SipA residues 425-685), unlabelled (P0CL52 425-685): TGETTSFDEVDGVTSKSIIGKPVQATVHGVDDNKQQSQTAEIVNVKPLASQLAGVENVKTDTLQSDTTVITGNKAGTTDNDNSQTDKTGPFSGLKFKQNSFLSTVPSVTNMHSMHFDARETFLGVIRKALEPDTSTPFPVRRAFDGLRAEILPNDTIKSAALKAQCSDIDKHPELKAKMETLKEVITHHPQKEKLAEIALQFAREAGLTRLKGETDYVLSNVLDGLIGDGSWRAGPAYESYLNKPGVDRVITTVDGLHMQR
Chain of FM-SipAC (SipA residues 425-685 labelled with fluorescein maleimide) (P0CL52 425-685): as above
Chain of Alexa-647-SipAC (SipA residues 425-685 labelled with Alexa Fluor 647 maleimide) (P0CL52 425-685): as above

Regarding “Alexa-647-SipAC (SipA residues 425-685 labelled with Alexa Fluor 647 maleimide) (from UniProt P0CL52 425-685) (domain or fragment)”, in assay [1], the Kd – broadly, the free concentration of one partner at which half of the binding sites on the other are occupied at equilibrium, for simple one-to-one binding – worked out at 0.1 nM and the koff – broadly, the rate constant with which the complex falls apart – was 0.00038 s⁻¹.

Take “SipAC (SipA residues 425-685), unlabelled (from UniProt P0CL52 425-685) (domain or fragment)”: the results for the Kd in assay [2] and in assay [4] were 0.18 nM and 5 nM, respectively. The stoichiometry N (SipAC per actin) in assay [3] was 0.5.

For “FM-SipAC (SipA residues 425-685 labelled with fluorescein maleimide) (from UniProt P0CL52 425-685) (domain or fragment)”, in assay [4], the Kd turned out to be 0.9 nM and the koff is 0.00304 s⁻¹.
